This is an account of results in paper PMC6555819, “Comprehensive study of nuclear receptor DNA binding provides a revised framework for understanding receptor specificity”.

One data set concerns the target RARg:RXRa (Homo sapiens, UniProt P13631;P19793 full;full). Description: no ligand; PBM; 270 nM : 90 nM RXRa; PBS pH 7.4, 2% milk, 0.02% Triton X-100, 1 mM DTT, BSA, 0.4 mg/ml salmon testes DNA. The conditions noted are these: tags: His kept;His cleaved; copies: 1;1; label: surface-attached array probe. The method in brief:
(§1)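 Custom Agilent 4×180K protein-binding microarrays carried double-stranded probes. Their 34-nt variable regions held direct-repeat seeds, single-nucleotide variants, half-site ablations and random human genomic background sequences. Arrays were incubated 1 h with ligand-free nuclear receptor dimers in PBS pH 7.4, 2% milk, 0.02% Triton X-100, 1 mM DTT, 0.2 mg/mL BSA and 0.4 mg/ml salmon testes DNA. Antibodies against each partner (one per run) detected binding, and scanned fluorescence was regression-normalized. Binding z-scores use random background probes as reference.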

Another data set addresses VDR:RXRa (Homo sapiens, UniProt P11473;P19793 full;full). The description is as above. Particulars: tags: His kept;His cleaved; copies: 1;1; label: surface-attached array probe. The method in brief:
as §1

Another data set concerns the target RARb:RXRa (Homo sapiens, UniProt P10826;P19793 full;full). Described as above. Particulars: tags: His kept;His cleaved; copies: 1;1; label: surface-attached array probe. Put shortly:
as §1

A further data set deals with RXRa (Homo sapiens, UniProt P19793). Description: no ligand; PBM; 180 nM; PBS pH 7.4, 2% milk, 0.02% Triton X-100, 1 mM DTT, BSA, 0.4 mg/ml salmon testes DNA. The conditions noted are these: tags: His cleaved; chain copies: 2; label: surface-attached array probe.
A further data set addresses FXR:RXRa (Homo sapiens, UniProt Q96RI1;P19793 full;full). Description: no ligand; PBM; 270 nM : 90 nM RXRa; PBS pH 7.4, 2% milk, 0.02% Triton X-100, 1 mM DTT, BSA, 0.4 mg/ml salmon testes DNA. Particulars: tags: His kept;His cleaved; copies: 1;1; label: surface-attached array probe. Put shortly: as §1
In the next data set the target is PPARa:RXRa (Homo sapiens, UniProt Q07869;P19793 full;full). Described as above. Particulars: tags: GST kept;His cleaved; copies: 1;1; label: surface-attached array probe. The method in brief:
as §1

Chain of RXRa (P19793 whole entry): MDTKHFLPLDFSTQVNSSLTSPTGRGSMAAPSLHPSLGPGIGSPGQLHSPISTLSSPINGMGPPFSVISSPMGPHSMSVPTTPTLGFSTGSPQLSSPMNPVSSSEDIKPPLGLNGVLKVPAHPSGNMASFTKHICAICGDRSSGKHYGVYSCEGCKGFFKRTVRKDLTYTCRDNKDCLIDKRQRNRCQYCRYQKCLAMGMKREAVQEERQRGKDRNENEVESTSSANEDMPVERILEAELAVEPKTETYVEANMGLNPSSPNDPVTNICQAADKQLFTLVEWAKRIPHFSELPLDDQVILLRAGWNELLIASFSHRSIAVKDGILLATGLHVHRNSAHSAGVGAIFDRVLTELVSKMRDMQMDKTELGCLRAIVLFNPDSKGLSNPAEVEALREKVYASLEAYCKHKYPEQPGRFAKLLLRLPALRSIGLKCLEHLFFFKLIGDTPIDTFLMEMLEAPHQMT
Chain of PPARa:RXRa (Q07869 whole entry, chain 1 of 2): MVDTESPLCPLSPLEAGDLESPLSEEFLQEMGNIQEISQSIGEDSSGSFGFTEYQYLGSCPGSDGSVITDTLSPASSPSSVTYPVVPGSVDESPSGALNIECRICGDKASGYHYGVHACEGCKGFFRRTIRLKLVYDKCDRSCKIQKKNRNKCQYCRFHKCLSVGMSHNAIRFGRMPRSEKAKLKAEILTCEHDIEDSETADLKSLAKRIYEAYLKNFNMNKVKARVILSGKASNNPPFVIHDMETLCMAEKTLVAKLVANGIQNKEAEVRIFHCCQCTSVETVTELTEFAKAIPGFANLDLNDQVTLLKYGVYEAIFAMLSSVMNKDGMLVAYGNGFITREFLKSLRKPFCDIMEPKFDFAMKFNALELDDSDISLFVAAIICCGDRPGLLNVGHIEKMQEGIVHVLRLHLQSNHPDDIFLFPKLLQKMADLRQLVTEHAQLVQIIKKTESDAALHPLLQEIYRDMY
Chain of PPARa:RXRa (P19793 whole entry, chain 2 of 2): as the sequence (P19793 whole entry) above
Chain of RARb:RXRa (P10826 whole entry, chain 1 of 2): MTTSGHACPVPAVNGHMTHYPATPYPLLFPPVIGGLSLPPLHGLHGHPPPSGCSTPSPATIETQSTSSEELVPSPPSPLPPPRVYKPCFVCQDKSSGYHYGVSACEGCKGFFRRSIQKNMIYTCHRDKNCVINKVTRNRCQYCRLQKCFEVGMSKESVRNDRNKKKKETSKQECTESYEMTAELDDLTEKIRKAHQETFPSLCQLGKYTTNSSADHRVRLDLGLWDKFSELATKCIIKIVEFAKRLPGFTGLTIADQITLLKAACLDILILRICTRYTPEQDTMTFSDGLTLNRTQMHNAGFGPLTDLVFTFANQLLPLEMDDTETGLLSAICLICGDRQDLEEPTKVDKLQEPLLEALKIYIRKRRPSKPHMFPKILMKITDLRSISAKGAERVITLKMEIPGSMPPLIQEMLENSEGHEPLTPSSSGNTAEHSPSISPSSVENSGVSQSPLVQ
Chain of RARb:RXRa (P19793 whole entry, chain 2 of 2): as the sequence (P19793 whole entry) above
Chain of RARg:RXRa (P13631 whole entry, chain 1 of 2): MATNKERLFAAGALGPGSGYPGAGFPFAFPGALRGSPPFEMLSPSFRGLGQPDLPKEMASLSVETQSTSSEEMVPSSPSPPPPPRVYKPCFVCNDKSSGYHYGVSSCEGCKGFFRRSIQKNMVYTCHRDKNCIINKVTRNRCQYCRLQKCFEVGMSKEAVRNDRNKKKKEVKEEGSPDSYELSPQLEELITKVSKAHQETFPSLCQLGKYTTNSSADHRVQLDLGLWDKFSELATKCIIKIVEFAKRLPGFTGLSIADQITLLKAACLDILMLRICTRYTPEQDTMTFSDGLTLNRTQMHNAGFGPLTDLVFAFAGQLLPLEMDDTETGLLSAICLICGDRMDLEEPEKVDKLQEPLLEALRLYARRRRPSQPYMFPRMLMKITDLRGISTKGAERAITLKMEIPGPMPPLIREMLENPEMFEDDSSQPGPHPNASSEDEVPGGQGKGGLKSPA
Chain of RARg:RXRa (P19793 whole entry, chain 2 of 2): as the sequence (P19793 whole entry) above
Chain of VDR:RXRa (P11473 whole entry, chain 1 of 2): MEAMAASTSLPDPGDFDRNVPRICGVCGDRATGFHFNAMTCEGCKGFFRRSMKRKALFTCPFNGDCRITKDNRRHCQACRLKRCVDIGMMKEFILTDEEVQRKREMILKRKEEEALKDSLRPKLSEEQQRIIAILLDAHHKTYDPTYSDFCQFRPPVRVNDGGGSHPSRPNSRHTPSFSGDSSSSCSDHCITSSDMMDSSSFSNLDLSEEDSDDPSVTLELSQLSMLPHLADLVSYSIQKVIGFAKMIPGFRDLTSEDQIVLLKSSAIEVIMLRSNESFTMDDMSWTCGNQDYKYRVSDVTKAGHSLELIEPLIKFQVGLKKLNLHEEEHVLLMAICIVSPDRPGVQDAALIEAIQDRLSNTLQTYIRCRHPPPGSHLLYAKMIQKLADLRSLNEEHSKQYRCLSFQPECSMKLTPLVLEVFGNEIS
Chain of VDR:RXRa (P19793 whole entry, chain 2 of 2): as the sequence (P19793 whole entry) above
Chain of FXR:RXRa (Q96RI1 whole entry, chain 1 of 2): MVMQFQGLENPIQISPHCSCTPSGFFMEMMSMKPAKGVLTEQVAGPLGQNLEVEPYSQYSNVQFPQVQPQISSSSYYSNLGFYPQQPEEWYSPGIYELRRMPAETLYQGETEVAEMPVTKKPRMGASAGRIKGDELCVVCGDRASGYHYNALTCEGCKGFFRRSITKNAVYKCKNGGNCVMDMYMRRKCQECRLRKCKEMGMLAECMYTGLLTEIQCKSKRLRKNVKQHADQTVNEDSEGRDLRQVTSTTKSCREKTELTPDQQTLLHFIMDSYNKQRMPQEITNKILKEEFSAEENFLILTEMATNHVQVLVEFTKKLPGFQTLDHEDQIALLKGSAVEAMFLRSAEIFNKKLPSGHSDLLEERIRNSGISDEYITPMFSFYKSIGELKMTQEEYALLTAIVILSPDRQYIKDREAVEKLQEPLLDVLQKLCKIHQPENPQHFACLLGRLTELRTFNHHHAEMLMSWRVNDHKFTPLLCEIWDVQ
Chain of FXR:RXRa (P19793 whole entry, chain 2 of 2): as the sequence (P19793 whole entry) above

B1: NRC3_random_hg19_107_o1 (dsDNA)
DNA 1: GCCTCAGGCTGAGTTGTGGTAGTGTAATCATAGCTCGCGATTGACAGCGTAGAATGAAGG
DNA 2: CCTTCATTCTACGCTGTCAATCGCGAGCTATGATTACACTACCACAACTCAGCCTGAGGC
Regarding B1, the binding signal with RARg:RXRa is -0.79 PBM z-score against 500 random probes; in the data set with VDR:RXRa it was -0.64 PBM z-score against 500 random probes.

B2: NRC3_random_hg19_358_o1 (dsDNA)
DNA 1: GCCTAGCAGCAACCAACCACAATGGCAAGGATGTAGGCGATTGACAGCGTAGAATGAAGG
DNA 2: CCTTCATTCTACGCTGTCAATCGCCTACATCCTTGCCATTGTGGTTGGTTGCTGCTAGGC
Consider B2, for which the binding signal with RARg:RXRa is -0.41 PBM z-score against 500 random probes; with VDR:RXRa, -0.81 PBM z-score against 500 random probes.

B3: NRC3_random_hg19_309_o1 (dsDNA)
DNA 1: GCCTTAGCTGGGATCTTATCTGTACAGTATCTGGGAGCGATTGACAGCGTAGAATGAAGG
DNA 2: CCTTCATTCTACGCTGTCAATCGCTCCCAGATACTGTACAGATAAGATCCCAGCTAAGGC
Regarding B3, the binding signal is -0.66 PBM z-score against 500 random probes with RARb:RXRa, -0.47 PBM z-score against 500 random probes in the data set with RARg:RXRa, -0.57 PBM z-score against 500 random probes with VDR:RXRa and -0.37 PBM z-score against 500 random probes with RXRa.

B4: NRC3_random_hg19_27_o1 (dsDNA)
DNA 1: GCTCCCTGCCCAGTTCTGTGCAGGGTGTGCGTGTCTGCGATTGACAGCGTAGAATGAAGG
DNA 2: CCTTCATTCTACGCTGTCAATCGCAGACACGCACACCCTGCACAGAACTGGGCAGGGAGC
In the case of B4, the binding signal in the data set with FXR:RXRa was -0.32 PBM z-score against 500 random probes; with RARb:RXRa, -0.46 PBM z-score against 500 random probes; with VDR:RXRa, -0.37 PBM z-score against 500 random probes.

B5: NRC3_wobSeed124_DR5_o1 (dsDNA)
DNA 1: GCCCTACTGGGCCATTCAGAGGTCATTGATCATATGGCGATTGACAGCGTAGAATGAAGG
DNA 2: CCTTCATTCTACGCTGTCAATCGCCATATGATCAATGACCTCTGAATGGCCCAGTAGGGC
As for B5, the binding signal with RARb:RXRa was 3.04 PBM z-score against 500 random probes; with VDR:RXRa it was 3.94 PBM z-score against 500 random probes.

B6: NRC3_wobSeed124_DR5_C13G_o1 (dsDNA)
DNA 1: GCCCTACTGGGCGATTCAGAGGTCATTGATCATATGGCGATTGACAGCGTAGAATGAAGG
DNA 2: CCTTCATTCTACGCTGTCAATCGCCATATGATCAATGACCTCTGAATCGCCCAGTAGGGC
Turning to B6, the results for the binding signal in the data set with VDR:RXRa and with PPARa:RXRa were 3.28 PBM z-score against 500 random probes and 3.07 PBM z-score against 500 random probes, respectively.

B7: NRC3_random_hg19_418_o1 (dsDNA)
DNA 1: GCTGTGAGCATCACTTCTTGTTGGTCAGAGTAAGAGGCGATTGACAGCGTAGAATGAAGG
DNA 2: CCTTCATTCTACGCTGTCAATCGCCTCTTACTCTGACCAACAAGAAGTGATGCTCACAGC
As for B7, the binding signal is -0.39 PBM z-score against 500 random probes with RARb:RXRa and -0.69 PBM z-score against 500 random probes with VDR:RXRa.

B8: NRC3_random_hg19_209_o1 (dsDNA)
DNA 1: GCGAGTTTCCAGCAGATGGCCATCACAACAATACTGGCGATTGACAGCGTAGAATGAAGG
DNA 2: CCTTCATTCTACGCTGTCAATCGCCAGTATTGTTGTGATGGCCATCTGCTGGAAACTCGC
Take B8: the binding signal with FXR:RXRa was -0.37 PBM z-score against 500 random probes; with VDR:RXRa it was -0.22 PBM z-score against 500 random probes; with RXRa it was -0.14 PBM z-score against 500 random probes.

B9: NRC3_random_hg19_353_o1 (dsDNA)
DNA 1: GCATAGAACTTAACTACCACCTCTCATTACCTGGAGGCGATTGACAGCGTAGAATGAAGG
DNA 2: CCTTCATTCTACGCTGTCAATCGCCTCCAGGTAATGAGAGGTGGTAGTTAAGTTCTATGC
On to B9, for which the binding signal was 0.31 PBM z-score against 500 random probes with VDR:RXRa and -0.07 PBM z-score against 500 random probes with PPARa:RXRa.

B10: NRC3_random_hg19_381_o1 (dsDNA)
DNA 1: GCCATGAGCGTGGAATGTTCTTCCATTTGTTCATATGCGATTGACAGCGTAGAATGAAGG
DNA 2: CCTTCATTCTACGCTGTCAATCGCATATGAACAAATGGAAGAACATTCCACGCTCATGGC
Take B10: the binding signal with FXR:RXRa was -0.07 PBM z-score against 500 random probes; in the data set with RARb:RXRa, -0.87 PBM z-score against 500 random probes; in the data set with RARg:RXRa, -0.62 PBM z-score against 500 random probes; in the data set with VDR:RXRa, -0.43 PBM z-score against 500 random probes.

B11: NRC3_random_hg19_115_o1 (dsDNA)
DNA 1: GCATCACCTGAGGCCAGGAATTCGAACCAGCATGGCGCGATTGACAGCGTAGAATGAAGG
DNA 2: CCTTCATTCTACGCTGTCAATCGCGCCATGCTGGTTCGAATTCCTGGCCTCAGGTGATGC
Consider B11, for which the binding signal is -0.3 PBM z-score against 500 random probes with VDR:RXRa and -0.52 PBM z-score against 500 random probes in the data set with PPARa:RXRa.

B12: NRC3_wobSeed123_DR5_G26A_o1 (dsDNA)
DNA 1: GCCCTCGGAGGACAACAGGAGGTCAAAGCTGCCAGAGCGATTGACAGCGTAGAATGAAGG
DNA 2: CCTTCATTCTACGCTGTCAATCGCTCTGGCAGCTTTGACCTCCTGTTGTCCTCCGAGGGC
B12: the figures for the binding signal with RARg:RXRa and with VDR:RXRa were 4.36 PBM z-score against 500 random probes and 3.35 PBM z-score against 500 random probes, respectively.

B13: NRC3_random_hg19_132_o1 (dsDNA)
DNA 1: GCCAATGCCAGCTACCAGGAGGCTGAGGTGTGAGAGGCGATTGACAGCGTAGAATGAAGG
DNA 2: CCTTCATTCTACGCTGTCAATCGCCTCTCACACCTCAGCCTCCTGGTAGCTGGCATTGGC
Consider B13, for which the binding signal with RARg:RXRa was -0.61 PBM z-score against 500 random probes; with VDR:RXRa, -0.75 PBM z-score against 500 random probes.

B14: NRC3_random_hg19_438_o1 (dsDNA)
DNA 1: GCTGTCGCCATCAAGCTACCATTGACTTTCTTCACAGCGATTGACAGCGTAGAATGAAGG
DNA 2: CCTTCATTCTACGCTGTCAATCGCTGTGAAGAAAGTCAATGGTAGCTTGATGGCGACAGC
As to B14, the binding signal with VDR:RXRa is -0.03 PBM z-score against 500 random probes; with PPARa:RXRa, 0.12 PBM z-score against 500 random probes.

B15: NRC3_random_hg19_426_o1 (dsDNA)
DNA 1: GCTGGAATCCTAGTGCTTTGGGAGGCTGAGGCTGGAGCGATTGACAGCGTAGAATGAAGG
DNA 2: CCTTCATTCTACGCTGTCAATCGCTCCAGCCTCAGCCTCCCAAAGCACTAGGATTCCAGC
In the case of B15, the binding signal with VDR:RXRa is -0.9 PBM z-score against 500 random probes; with PPARa:RXRa it was -0.97 PBM z-score against 500 random probes.

B16: NRC3_random_hg19_55_o1 (dsDNA)
DNA 1: GCTTGAACGCCTGCTTTGTGCTGATGCAGATCCAGAGCGATTGACAGCGTAGAATGAAGG
DNA 2: CCTTCATTCTACGCTGTCAATCGCTCTGGATCTGCATCAGCACAAAGCAGGCGTTCAAGC
For the molecule B16, the binding signal was -0.23 PBM z-score against 500 random probes in the data set with FXR:RXRa and -0.59 PBM z-score against 500 random probes in the data set with VDR:RXRa.

B17: NRC3_random_hg19_130_o1 (dsDNA)
DNA 1: GCGAGATCAAGACCATCCTGGCTAACATGGTGAAACGCGATTGACAGCGTAGAATGAAGG
DNA 2: CCTTCATTCTACGCTGTCAATCGCGTTTCACCATGTTAGCCAGGATGGTCTTGATCTCGC
B17: the binding signal was -0.35 PBM z-score against 500 random probes in the data set with VDR:RXRa and -0.18 PBM z-score against 500 random probes with RXRa.

B18: NRC3_random_hg19_54_o1 (dsDNA)
DNA 1: GCAGGTAATGTATTCACAGGTTCTGGGACGTCATTGGCGATTGACAGCGTAGAATGAAGG
DNA 2: CCTTCATTCTACGCTGTCAATCGCCAATGACGTCCCAGAACCTGTGAATACATTACCTGC
On to B18, for which the binding signal in the data set with RARg:RXRa is -0.18 PBM z-score against 500 random probes; with VDR:RXRa it was -0.18 PBM z-score against 500 random probes; in the data set with RXRa, -0.06 PBM z-score against 500 random probes.

B19: NRC3_wobSeed50_DR2_T20C_o1 (dsDNA)
DNA 1: GCCCTAGTTGGTCAGGAGGCCACACACCGGATATGAGCGATTGACAGCGTAGAATGAAGG
DNA 2: CCTTCATTCTACGCTGTCAATCGCTCATATCCGGTGTGTGGCCTCCTGACCAACTAGGGC
Turning to B19, the binding signal with VDR:RXRa was 0.33 PBM z-score against 500 random probes; with RXRa, 0.4 PBM z-score against 500 random probes.

B20: NRC3_wobSeed77_DR3_C8A_o1 (dsDNA)
DNA 1: GCACTTAAGGGTCAACGAGGTTATAGCACGCGTATAGCGATTGACAGCGTAGAATGAAGG
DNA 2: CCTTCATTCTACGCTGTCAATCGCTATACGCGTGCTATAACCTCGTTGACCCTTAAGTGC
Take B20: the figures for the binding signal with FXR:RXRa and in the data set with VDR:RXRa were 7.94 PBM z-score against 500 random probes and 8.17 PBM z-score against 500 random probes, respectively.

B21: NRC3_random_hg19_190_o1 (dsDNA)
DNA 1: GCGCCTCAATTCTAACTTGATTGCTTCCCTAGAGGCGCGATTGACAGCGTAGAATGAAGG
DNA 2: CCTTCATTCTACGCTGTCAATCGCGCCTCTAGGGAAGCAATCAAGTTAGAATTGAGGCGC
As for B21, the binding signal with FXR:RXRa is 0.46 PBM z-score against 500 random probes; in the data set with VDR:RXRa, 0.11 PBM z-score against 500 random probes.

B22: NRC3_random_hg19_260_o1 (dsDNA)
DNA 1: GCGGAAGTCCTCTTTGCCACATTTCCAACAGATGGCGCGATTGACAGCGTAGAATGAAGG
DNA 2: CCTTCATTCTACGCTGTCAATCGCGCCATCTGTTGGAAATGTGGCAAAGAGGACTTCCGC
As for B22, the binding signal with VDR:RXRa is 0.14 PBM z-score against 500 random probes; with PPARa:RXRa, 0.42 PBM z-score against 500 random probes.

B23: NRC3_random_hg19_108_o1 (dsDNA)
DNA 1: GCTAGGAATGTGAGTTTCTCTAAGTTCTATTCCTGGGCGATTGACAGCGTAGAATGAAGG
DNA 2: CCTTCATTCTACGCTGTCAATCGCCCAGGAATAGAACTTAGAGAAACTCACATTCCTAGC
For the molecule B23, the binding signal with RARg:RXRa was 0.22 PBM z-score against 500 random probes; with VDR:RXRa, 0.17 PBM z-score against 500 random probes.
